Measured values: paper PMC3111191, “Molecular Evolution of Multiple Arylalkylamine N-Acetyltransferase (AANAT) in Fish” (Marine Drugs, 2011)

What was measured:
[1] = substrate: NCCc1c[nH]c2ccc(O)cc12; assay: colorimetric assay of CoASH release, non-linear regression; format: biochemical, Sparus aurata; conditions: near-saturating AcCoA; apparent Km
[2] = substrate: NCCc1c[nH]c2ccccc12; assay: as above; format: biochemical, Sparus aurata; conditions: near-saturating AcCoA; apparent Km

| Protein | Km [1] [µM] | Km [2] [µM] |
| --- | --- | --- |
| AANAT2 (Sparus aurata) (protein) MTQQVSGSPFFKPFFLKTPVSLLRQRRHTLPASEFRNLTPQDAISVFEIEREAFVSVSGECPLTLDEVLNFLGQCPELSLGWFEEGQLVAFIIGSGWGKERLSQEAMTQHVPDSPAVHIHVLSVHRHCRQQGKGSILLWRFLQYLRCIPGLRRALLICEEYLVPFYQKAGFKEKGPSAISISNMQFQEMEYTIGGQAYTRRNSGC | 2200 | 2000 |
| AANAT2 (Sparus aurata; I157M) (protein) MTQQVSGSPFFKPFFLKTPVSLLRQRRHTLPASEFRNLTPQDAISVFEIEREAFVSVSGECPLTLDEVLNFLGQCPELSLGWFEEGQLVAFIIGSGWGKERLSQEAMTQHVPDSPAVHIHVLSVHRHCRQQGKGSILLWRFLQYLRCIPGLRRALLMCEEYLVPFYQKAGFKEKGPSAISISNMQFQEMEYTIGGQAYTRRNSGC | 940 | 900 |
| AANAT2 (Sparus aurata; S123A) (protein) MTQQVSGSPFFKPFFLKTPVSLLRQRRHTLPASEFRNLTPQDAISVFEIEREAFVSVSGECPLTLDEVLNFLGQCPELSLGWFEEGQLVAFIIGSGWGKERLSQEAMTQHVPDSPAVHIHVLAVHRHCRQQGKGSILLWRFLQYLRCIPGLRRALLICEEYLVPFYQKAGFKEKGPSAISISNMQFQEMEYTIGGQAYTRRNSGC | 650 | 650 |
| AANAT2 (Sparus aurata; G73T/L69R/N70H/Q74L) (protein) MTQQVSGSPFFKPFFLKTPVSLLRQRRHTLPASEFRNLTPQDAISVFEIEREAFVSVSGECPLTLDEVRHFLTLCPELSLGWFEEGQLVAFIIGSGWGKERLSQEAMTQHVPDSPAVHIHVLSVHRHCRQQGKGSILLWRFLQYLRCIPGLRRALLICEEYLVPFYQKAGFKEKGPSAISISNMQFQEMEYTIGGQAYTRRNSGC | 880 | 1200 |
